Measurements reported in patent US20070060521A1.
One block for each binder: values may come before it.

Experiments:
[1] = molecular target: GST fusion protein containing the isolated SH2 domain of STAT3; assay: phage display panning on the isolated SH2 domain of STAT3, clones sequenced after selection
[2] = molecular target: GST-Stat3 fusion protein (full-length STAT3 fused to bacterial glutathione S-transferase); assay: phage display panning on GST-Stat3, clones sequenced after selection
GST-Stat3 fusion protein (full-length STAT3 fused to bacterial glutathione S-transferase), sequence (P40763 whole entry, the tested form may be a part): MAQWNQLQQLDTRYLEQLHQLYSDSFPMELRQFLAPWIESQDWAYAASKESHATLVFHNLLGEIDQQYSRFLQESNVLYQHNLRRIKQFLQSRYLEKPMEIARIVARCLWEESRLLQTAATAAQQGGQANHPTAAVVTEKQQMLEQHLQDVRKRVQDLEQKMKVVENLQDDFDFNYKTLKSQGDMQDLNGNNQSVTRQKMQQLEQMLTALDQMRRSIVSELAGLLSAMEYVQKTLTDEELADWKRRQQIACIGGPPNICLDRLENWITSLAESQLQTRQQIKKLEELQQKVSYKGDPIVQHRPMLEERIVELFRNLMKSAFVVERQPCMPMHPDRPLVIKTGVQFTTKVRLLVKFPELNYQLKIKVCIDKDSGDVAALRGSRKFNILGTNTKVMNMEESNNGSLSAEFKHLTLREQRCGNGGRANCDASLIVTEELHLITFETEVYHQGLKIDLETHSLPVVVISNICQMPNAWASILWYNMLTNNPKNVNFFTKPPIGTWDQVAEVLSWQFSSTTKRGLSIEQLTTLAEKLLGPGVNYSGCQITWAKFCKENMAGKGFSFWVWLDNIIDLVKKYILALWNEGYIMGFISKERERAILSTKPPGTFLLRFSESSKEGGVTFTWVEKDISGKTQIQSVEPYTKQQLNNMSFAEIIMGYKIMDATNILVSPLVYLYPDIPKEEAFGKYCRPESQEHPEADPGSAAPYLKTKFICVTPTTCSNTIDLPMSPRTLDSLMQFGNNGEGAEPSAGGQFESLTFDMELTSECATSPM

GST fusion protein containing the isolated SH2 domain of STAT3, sequence (P40763 580-670): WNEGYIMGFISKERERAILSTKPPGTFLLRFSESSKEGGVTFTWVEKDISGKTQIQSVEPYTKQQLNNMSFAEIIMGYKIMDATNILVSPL

Frequency (out of 100 clones) [2]: 9%
B2: … (SEQ ID NO:14) (peptide, not shown: large carriers)
peptide: SHPWNAQRELSVGGGS

Frequency (out of 100 clones) [2]: 13%
B3: … (SEQ ID NO:13) (peptide, not shown: large carriers)
peptide: QDVHLTQQSRYTGGGS

Frequency (out of 100 clones) [2]: 8%
B4: … (SEQ ID NO:15) (peptide, not shown: large carriers)
peptide: YPAPQPLVTKTSGGGS

Frequency (out of 100 clones) [2]: 8%
B6: … (SEQ ID NO:16) (peptide, not shown: large carriers)
peptide: FSYPLTRAPLNMGGGS

The remaining lines, values behind:

B1: ASTLPKA (SEQ ID NO:18) (peptide, not shown: small tags and cut ends; large carriers)
peptide: ASTLPKA
Frequency (out of 100 clones) [1]: 7%

B5: IQSPHFF (SEQ ID NO:19) (peptide, not shown: small tags and cut ends; large carriers)
peptide: IQSPHFF
Frequency (out of 100 clones) [1]: 6%

B7: HAIYPRN (SEQ ID NO:17) (peptide, not shown: small tags and cut ends; large carriers)
peptide: HAIYPRN
Frequency (out of 100 clones) [1]: 16%
